Data: the Immune Epitope Database (IEDB)
pIC50: −log10 of the molar value.

Tests used:
Assay in all cases: IEDB peptide-MHC binding, purified MHC/competitive/radioactivity; ≥ and ≤ were set here for values at or beyond the usual limits of such assays
Settings in all cases: source organism: Bordetella pertussis
HLA-A*02:01 = target: HLA-A*02:01
HLA-B*35:01 = target: HLA-B*35:01
HLA-B*57:01 = target: HLA-B*57:01
HLA-B*07:02 = target: HLA-B*07:02
HLA-B*44:03 = target: HLA-B*44:03

ALAAIASAA
pIC50 (HLA-A*02:01): 4.91

DATLVGAKF
pIC50 (HLA-B*35:01): 4.22

HFIGYIYEV
pIC50 (HLA-A*02:01): 7.79

HVSKEEQYY
pIC50 (HLA-B*35:01): 4.16
pIC50 (HLA-B*57:01): ≤ 4.15

KPDRAARVA
pIC50 (HLA-B*07:02): 6.34

LLGSHVARA
pIC50 (HLA-A*02:01): 5.63

QAIVVGKDL
pIC50 (HLA-B*44:03): 4.50

RTRGQARSG
pIC50 (HLA-B*57:01): 4.93

RVRALAWLL
pIC50 (HLA-B*07:02): 6.38
pIC50 (HLA-B*57:01): 6.15

VEDIGGKNY
pIC50 (HLA-B*44:03): 4.79

YENKSSTPL
pIC50 (HLA-B*44:03): 4.43

YIWGLYQTY
pIC50 (HLA-B*44:03): 6.33
